Assay [1] concerns the target human cardiac α-actin mutant p.R312H (human).
Assay [2] deals with human cardiac muscle wild-type α-actin (recombinant) (human) (UniProt P68032).
Assay [3] has as its target human cardiac α-actin mutant p.A295S (human).
The target of assay [4] is human cardiac α-actin mutant p.E361G (human).
For assay [5], the target named is human cardiac muscle wild-type α-actin (recombinant) (human) (UniProt P68032). Briefly: pyrene-actin polymerization assay; 5 µM c-actin with pyrene-labeled skeletal muscle actin added at 20:1, G-buffer; polymerization induced by 2 mM MgCl2 and 0.1 M KCl; rise of pyrene fluorescence; control without nucleator.

FH2-domain of the formin mDia3, sequence (O70566 625-1025): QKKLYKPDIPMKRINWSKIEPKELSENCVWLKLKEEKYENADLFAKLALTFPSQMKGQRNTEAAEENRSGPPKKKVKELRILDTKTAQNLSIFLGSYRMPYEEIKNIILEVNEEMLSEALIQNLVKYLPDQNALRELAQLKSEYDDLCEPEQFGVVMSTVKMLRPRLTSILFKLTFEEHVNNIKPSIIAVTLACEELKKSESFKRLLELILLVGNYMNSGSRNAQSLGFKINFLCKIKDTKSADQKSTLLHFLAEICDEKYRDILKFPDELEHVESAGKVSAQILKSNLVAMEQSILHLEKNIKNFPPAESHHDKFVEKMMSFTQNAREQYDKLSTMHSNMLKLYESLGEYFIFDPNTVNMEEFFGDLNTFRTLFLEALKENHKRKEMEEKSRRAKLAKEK

For “Arp2/3 complex isolated from Acanthameba castellani”, in assay [1], the half time of polymerization (t1/2) of 5 µM c-actin with 50 nM Arp2/3 complex, pyrene-actin assay (control without nucleator 13.8 min) turned out to be 1 min. Also, the half time of polymerization (t1/2) of 5 µM c-actin with 50 nM Arp2/3 complex, pyrene-actin assay (control without nucleator 8.6 min) in assay [2] is 2.1 min. Besides, the half time of polymerization (t1/2) of 5 µM c-actin with 50 nM Arp2/3 complex, pyrene-actin assay (control without nucleator 12.2 min) in assay [3] came out at 1.2 min. In assay [4], this substance registered a half time of polymerization (t1/2) of 5 µM c-actin with 50 nM Arp2/3 complex, pyrene-actin assay (control without nucleator 4.0 min) of 1.8 min.
As for “FH2-domain of the formin mDia3 (from UniProt O70566 625-1025) (domain or fragment)”, the half time of polymerization (t1/2) of 5 µM c-actin with 50 nM mDia3-FH2, pyrene-actin assay (control without nucleator 13.8 min) in assay [1] worked out at 4.1 min. Further, the half time of polymerization (t1/2) of 5 µM c-actin with 50 nM mDia3-FH2, pyrene-actin assay (control without nucleator 8.6 min) in assay [2] amounted to 6.9 min. In assay [3], this substance showed a half time of polymerization (t1/2) of 5 µM c-actin with 50 nM mDia3-FH2, pyrene-actin assay (control without nucleator 12.2 min) of 3.5 min. This substance also displayed a half time of polymerization (t1/2) of 5 µM c-actin with 50 nM mDia3-FH2, pyrene-actin assay (control without nucleator 4.0 min) in assay [4] of 2.9 min.
For the substance “human cardiac muscle wild-type α-actin (recombinant) (from UniProt P68032 1-377) (natural protein)”, in assay [5], the half time of polymerization (t1/2) came out at 8.6 min.
